In the test the target is CD28 (UniProt P10747 19-220). Briefly: flow cytometry, HEK293 cells transfected with CD28.

Experimental findings from patent US20260062456A1 (ALPINE IMMUNE SCIENCES, published 2026) are described below.

B1: WT CD80 ECD Fc (Fc fusion, not shown: a dimerising Fc or GST)
chain: VIHVTKEVKEVATLSCGHNVSVEELAQTRIYWQKEKKMVLTMMSGDMNIWPEYKNRTIFDITNNLSIVILALRPSDEGTYECVVLKYEKDAFKREHLAEVTLSVKADFPTPSISDFEIPTSNIRRIICSTSGGFPEPHLSWLENGEELNAINTTVSQDPETELYAVSSKLDFNMTTNHSFMCLIKYGHLRVNQTFNWNTTKQEHFPDN
In the case of B1, the “MFI at 66.6 nM” value was 3070 MFI.
